Test results published in article PMC12264004, “Super-resolution imaging of native fluorescent photoreceptors in chytrid fungal eyes” (The EMBO Journal, 2025).

What was measured:
[1] = test system: T1, CaRGC (homodimeric, full-length); experiment: cGMP by reverse-phase HPLC, Hill fit, crude membranes; format: biochemical, Catenaria anguillulae; settings: light-triggered; 10 mM MgCl2; HEPES pH 7.4
T1 construct: homodimer; crude membrane fraction (HEK293T); gene as used in Scheib et al 2018

[2] = substrate: Nc1nc2c(ncn2[C@@H]2O[C@H](COP(=O)(O)OP(=O)(O)OP(=O)(O)O)[C@@H](O)[C@H]2O)c(=O)[nH]1; experiment: cGMP by reverse-phase HPLC, Hill fit; format: biochemical, Rhizoclosmatium globosum; settings: GTP:MnCl2 1:2

Molecule | Km ([2]; equimolar mixture) [µM] | also measured
Nc1nc2c(ncn2[C@@H]2O[C@H](COP(=O)(O)OP(=O)(O)OP(=O)(O)O)[C@@H](O)[C@H]2O)c(=O)[nH]1 [GTP] | – | Km [1]: 470 ± 50 µM
RGC1-cat (Rhizoclosmatium globosum) (protein, soluble catalytic domain aa 365-551, C-terminal His-tag, E. coli ArcticExpress (DE3), 24,997 g/mol, homodimer) NGAEEYASVTVFFSDITNFVALSGKSSTKDMLATLNKLWVEYDVICKRWGVYKVETIGDAFLGVVGAPDRIPDHAERAANFAIDVIRMVQDFRTVNDEEIVTRIGLNSGPITAGILGDSNPHWCIVGDAVNTASRMESTSKPMRIHISENTYKLINGKGFKLEGPDVMNIKGKGTMNTYWINGRG | – | Km [2]: 5530 µM
RGC1-cat/NeoR-cat (Rhizoclosmatium globosum) (protein, equimolar mixture of purified C-terminally His-tagged catalytic domains (E. coli); heterodimer, some RGC1-cat homodimer remains) chain 1: NGAEEYASVTVFFSDITNFVALSGKSSTKDMLATLNKLWVEYDVICKRWGVYKVETIGDAFLGVVGAPDRIPDHAERAANFAIDVIRMVQDFRTVNDEEIVTRIGLNSGPITAGILGDSNPHWCIVGDAVNTASRMESTSKPMRIHISENTYKLINGKGFKLEGPDVMNIKGKGTMNTYWINGRG chain 2: TGAEEYSCVTVFFSDIANFTPLSQRTSTKDMLASLNNMWIEYDKISKKWGMYKVETIGDAFLGVVGAPDRVPDHAERAAEFSIDIIDMIKDFRLVTGEPIQIRAGLNSGPVTAGILGESNPHWCIVGDTVTIASKMEATSKHMKIHIAESTFNLIKSSGKFRTSDSEPVTIKGNVINTFFIEGRA | 1540 | –
RGC2-cat/NeoR-cat (Rhizoclosmatium globosum) (protein, equimolar mixture of purified C-terminally His-tagged catalytic domains (E. coli); heterodimer) chain 1: ATGSEEYSSVTVFFSDVTNFHALSNKNSTKEMLATLNKLWIEYDVICKRWGVYKVETIGDAFLGVVGAPERVPDHAERAANFAVDVISMVQDFRTDKGEELITRVGLNSGPITAGILGDSNPHWCIVGDAVNTASRMESTSKPMRIHISENTYKLIKNKGFRLEGPDVMNIKGKGTMNTYWINGRS chain 2: TGAEEYSCVTVFFSDIANFTPLSQRTSTKDMLASLNNMWIEYDKISKKWGMYKVETIGDAFLGVVGAPDRVPDHAERAAEFSIDIIDMIKDFRLVTGEPIQIRAGLNSGPVTAGILGESNPHWCIVGDTVTIASKMEATSKHMKIHIAESTFNLIKSSGKFRTSDSEPVTIKGNVINTFFIEGRA | 980 | –
